Residue numbers refer to the chain shown, from its start.

Here are results for eleven molecules from patent US20230348588A1 (published 2023).

B1: mouse monoclonal antibody 8H24 (antibody, V domains shown)
VH: QAYLQQSGTELVRPGASVKMSCKASGYTFTSYSMHWVKQTPRQGLEWIGAIYPGNDATSYNQKFKGKATLTVDKSSSTAYMQLSSLTSEDSAVYFCAREGYYGSSFEAWFASWGQGTLVTVSA
VL: DVLMTQTPLSLPVSLGDQASISCRSSQSIVHSNGNTYLEWYLQKPGQSPKLLIYKVSNRFSGVPDRFSGSGSGTDFTLKISRVEAEDLGVYYCFQGSHVLPTFGGGTKLEIK
notes: also called murine 8H24; m8H24
B2: mouse monoclonal antibody 2P22 (antibody, mouse IgG2b, V domains shown)
VH: EVQLVESGGDLVKPGGSLKLSCAASGFTFSIYGMSWVRQTPDKKLEWVAAISSGGIYTYYPDSVKGRFTISRDNAKNTLYLQMSSLKSADTAMYYCTRNDYDWFAYWGQGTLVTVSA
VL: DIQMTQSPSSLSASLGERVSLTCRASQDIGSSLNWLQQEPDGTIKRLIYATSSLDSGVPKRFSGSRSGSDYSLTISSLESEDFVDYYCLQYASSPYTFGGGTKLEIK
B3: mouse monoclonal antibody 11M14 (antibody, V domains shown)
VH: EVQLVESGGDLVKPGGSLKLSCAASGFTFNIYGMSWVRQTPDKRLEWVATISSGGIYTYYPDILKGRFTISRDNAKNTLYLQMSSLKSEDTAMYYCARHPGGAMDYWGQGTSVTVSS
VL: DIQMTQSPASLSVSVGETVTITCRVSENIYSNLAWYQQKQGKSPHLLVYAATNLADGVPSRFSGSGSGTQYSLKINSLQSEDFGSYYCQHFWGTPPWTFGGGTKLEIK
notes: also called murine 11M14; m11M14
B4: mouse monoclonal antibody 2F18 (antibody, mouse IgG1, V domains shown)
VH: B3 VH with S53T, I63S, L64V, G101V, M104L
VL: B3 VL with M4V, V25A, A50T, N53T
B5: mouse monoclonal antibody 5E20 (antibody, V domains shown)
VH: EVQLVESGGDLVKPGGSLKLSCAAPGFTFSTYGMSWVRQTPDKRLEWVAIISSGGSYTYYSDTVKGRFTISRDNAKNTLYLQMSSLKSEDTAMYYCSRSSSHWYFDVWGTGTTVTVSS
VL: DILMTQSPSSMSVSLGDTVSITCHASQGISSNIGWLQQKPGKSFKGLIYHGTNLKDGVPSRFSGSGSGADFSLTISSLESEDFADYFCVQYAQFPYTFGGGTKLEKR
notes: also called murine 5E20; m5E20
B6: mouse monoclonal antibody 2C14 (antibody, mouse IgG1, V domains shown)
VH: EVQLVESGGDLVKPGGSLKLSCAASGFTFNTHGMSWVRQTPDKSLEWVATISTGGFYTSYPDSVKGRFTISRDNAKNTLFLQMSSLKSEDTAMYYCAKSSSHWYFDVWGTGTTVTVSS
VL: B5 VL with K55E, F71Y, S80Y, F87Y, Q93H, K106I, R107K
B7: mouse monoclonal antibody 6B15 (antibody, mouse IgG1, V domains shown)
VH: B5 VH with Y80N, Y95F
VL: B5 VL with S7F, A69T, F87Y
B8: hu8H24VHv2/hu8H24VLv2 (antibody, V domains shown)
VH: QAQLVQSGAEVVKPGSSVKVSCKASGYTFTSYSMHWVRQAPGQGLEWIGAIYPGNDATSYNQKFKGRATLTVDKSTSTAYMELSSLRSEDTAVYFCAREGYYGSSFEAWFASWGQGTTVTVSS
VL: B1 VL with L3V, L9S, S14T, L15P, D17E, Q18P, K50Q, K79T, L88V, L109V
notes: Humanized variable regions; also called 8H24H2L2
B9: hu8H24VHv2/hu8H24VLv1 (antibody, V domains shown)
VH: B8 VH
VL: B1 VL with L3V, S14T, L15P, D17E, Q18P, K50Q, L88V, L109V
notes: Humanized variable regions; also called 8H24H2L1
B10: chimeric 11M14 (antibody, human IgG1, kappa, L234A L235A, V domains shown)
VH: B3 VH
VL: DIQMTQSPASLSVSVGETVTITCRVSENIYSNLAWYQQKQGKSPHLLVYAATNLADGVPSRFSGSGSGTQYSLKINSLQSEDFGSYYCQHFWGTPPWTFGGGTKLEIKR
B11: chimeric 5E20 (antibody, human IgG1, kappa, L234A L235A, V domains shown)
VH: B5 VH
VL: DILMTQSPSSMSVSLGDTVSITCHASQGISSNIGWLQQKPGKSFKGLIYHGTNLKDGVPSRFSGSGSGADFSLTISSLESEDFADYFCVQYAQFPYTFGGGTKLEIKR

One test deals with T1, extracellular domain (ECD) of recombinant human Sortilin with a C-terminal HIS tag (ECD-huSortilin-HIS) (human, UniProt Q99523 78-755).
T1 construct: Bought (R&D Systems); also called human sortilin-ECD
T1 sequence: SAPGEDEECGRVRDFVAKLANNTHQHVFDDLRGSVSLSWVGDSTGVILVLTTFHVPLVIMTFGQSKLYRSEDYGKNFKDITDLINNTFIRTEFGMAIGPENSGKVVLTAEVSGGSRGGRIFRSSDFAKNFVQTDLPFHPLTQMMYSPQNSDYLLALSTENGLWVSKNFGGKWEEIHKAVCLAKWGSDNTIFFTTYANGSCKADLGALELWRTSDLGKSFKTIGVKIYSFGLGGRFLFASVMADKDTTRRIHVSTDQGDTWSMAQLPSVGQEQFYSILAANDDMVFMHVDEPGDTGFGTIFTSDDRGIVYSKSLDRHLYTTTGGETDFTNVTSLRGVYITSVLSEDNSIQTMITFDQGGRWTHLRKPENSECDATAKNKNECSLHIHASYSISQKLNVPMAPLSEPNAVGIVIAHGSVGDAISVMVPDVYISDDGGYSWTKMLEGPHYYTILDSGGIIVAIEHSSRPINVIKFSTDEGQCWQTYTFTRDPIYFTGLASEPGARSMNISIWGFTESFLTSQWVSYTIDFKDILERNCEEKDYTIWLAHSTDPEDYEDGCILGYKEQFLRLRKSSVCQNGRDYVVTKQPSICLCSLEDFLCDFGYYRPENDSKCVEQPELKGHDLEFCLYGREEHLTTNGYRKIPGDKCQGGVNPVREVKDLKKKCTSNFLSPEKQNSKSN
Put plainly: SPR (Biacore T200), mAb captured on anti-mouse chip, sortilin as analyte, global 1:1 fit. The method, then: Analysis was performed using a Biacore T200 to compare the binding affinity of murine anti-huSortilin antibodies to recombinant human Sortilin. Anti-mouse antibody was immobilized on sensor chip CM5 (GE Healthcare Life Sciences) via amine coupling, and mouse antibodies (ligand) were captured to a level to ensure a maximum binding of analyte of 50 RU (approximately 100RU of ligand binding). Various concentrations of Sortilin (ranging from 0.1 nM to 300 nM) were passed over the captured ligand at 50 µL/min in running buffer (HBS + 0.05% P-20, 1 mg/mL BSA) for 180-300 s association time and 300-900 s dissociation time. Regeneration of the chip surface was accomplished by 2 short injections of 10 mM Glycine-HCI at pH 1.7. Data was blank subtracted to both a sensor not containing ligand and 0 nM analyte concentration. Analysis was performed using a global 1:1 fit with Biacore Insight Evaluation software (v2.0) with bulk refractive index set to zero RU.
(Surface plasmon resonance follows binding to a sensor surface in real time, without labels.)
Consider B1, for which the koff (in general, a measure of how fast the partners let go of each other) turned out to be 0.00044 s⁻¹ and the kon (as a rule, the second-order rate constant of association) was 96600 M⁻¹ s⁻¹.

Regarding B2, the koff was 0.000237 s⁻¹ and the kon is 108000 M⁻¹ s⁻¹. In the same order, the values of B3 are 0.000569 s⁻¹ and 91100 M⁻¹ s⁻¹. The like results for B4 were, in that order, 0.000162 s⁻¹ and 57600 M⁻¹ s⁻¹. Turning to B5, the koff was 0.000139 s⁻¹ and the kon was determined as 87700 M⁻¹ s⁻¹.

As to B6, the koff stood at 0.00245 s⁻¹ and the kon came to 208000 M⁻¹ s⁻¹. In the same order, the values of B7 are 0.00013 s⁻¹ and 127000 M⁻¹ s⁻¹.

A further test concerns the target T1, extracellular domain (ECD) of …. In words: SPR (Biacore T200), mAb captured on anti-human chip, sortilin as analyte, global 1:1 fit. The method, then:
Analysis was performed using a Biacore T200 to compare the binding affinity of chimeric and humanized antibodies to recombinant human Sortilin. Anti-Human antibody was immobilized on sensor chip CM5 (GE Healthcare Life Sciences) via amine coupling, and humanized antibodies (ligand) were captured to a level to ensure a maximum binding of analyte of 50 RU (approximately 100 RU of ligand binding). Various concentrations of Sortilin (ranging from 0.1 nM to 300 nM) were passed over the captured ligand at 50 µL/min in running buffer (HBS + 0.05% P-20, 1 mg/mL BSA) for 300 s association time and 1200 s dissociation time. Regeneration of the chip surface was accomplished by 2 short injections of 3 M MgCl. Data was blank subtracted to both a sensor not containing ligand and 0 nM analyte concentration. Analysis was performed using a global 1:1 fit with Biacore Insight Evaluation software (v2.0) with bulk refractive index set to zero RU.
B8: the koff was 0.0025 s⁻¹. Still for that read-out and setting: the figure for B9 is 0.00257 s⁻¹. As for B10, the koff stood at 0.000969 s⁻¹ and the kon was found to be 384000 M⁻¹ s⁻¹. In the same order, the values of B11 are 0.000396 s⁻¹ and 597000 M⁻¹ s⁻¹.
